Biological target: PLCβ2 (Homo sapiens, UniProt Q00722)
Assay: fluorescence titration

PLCβ2, sequence (Q00722 whole entry): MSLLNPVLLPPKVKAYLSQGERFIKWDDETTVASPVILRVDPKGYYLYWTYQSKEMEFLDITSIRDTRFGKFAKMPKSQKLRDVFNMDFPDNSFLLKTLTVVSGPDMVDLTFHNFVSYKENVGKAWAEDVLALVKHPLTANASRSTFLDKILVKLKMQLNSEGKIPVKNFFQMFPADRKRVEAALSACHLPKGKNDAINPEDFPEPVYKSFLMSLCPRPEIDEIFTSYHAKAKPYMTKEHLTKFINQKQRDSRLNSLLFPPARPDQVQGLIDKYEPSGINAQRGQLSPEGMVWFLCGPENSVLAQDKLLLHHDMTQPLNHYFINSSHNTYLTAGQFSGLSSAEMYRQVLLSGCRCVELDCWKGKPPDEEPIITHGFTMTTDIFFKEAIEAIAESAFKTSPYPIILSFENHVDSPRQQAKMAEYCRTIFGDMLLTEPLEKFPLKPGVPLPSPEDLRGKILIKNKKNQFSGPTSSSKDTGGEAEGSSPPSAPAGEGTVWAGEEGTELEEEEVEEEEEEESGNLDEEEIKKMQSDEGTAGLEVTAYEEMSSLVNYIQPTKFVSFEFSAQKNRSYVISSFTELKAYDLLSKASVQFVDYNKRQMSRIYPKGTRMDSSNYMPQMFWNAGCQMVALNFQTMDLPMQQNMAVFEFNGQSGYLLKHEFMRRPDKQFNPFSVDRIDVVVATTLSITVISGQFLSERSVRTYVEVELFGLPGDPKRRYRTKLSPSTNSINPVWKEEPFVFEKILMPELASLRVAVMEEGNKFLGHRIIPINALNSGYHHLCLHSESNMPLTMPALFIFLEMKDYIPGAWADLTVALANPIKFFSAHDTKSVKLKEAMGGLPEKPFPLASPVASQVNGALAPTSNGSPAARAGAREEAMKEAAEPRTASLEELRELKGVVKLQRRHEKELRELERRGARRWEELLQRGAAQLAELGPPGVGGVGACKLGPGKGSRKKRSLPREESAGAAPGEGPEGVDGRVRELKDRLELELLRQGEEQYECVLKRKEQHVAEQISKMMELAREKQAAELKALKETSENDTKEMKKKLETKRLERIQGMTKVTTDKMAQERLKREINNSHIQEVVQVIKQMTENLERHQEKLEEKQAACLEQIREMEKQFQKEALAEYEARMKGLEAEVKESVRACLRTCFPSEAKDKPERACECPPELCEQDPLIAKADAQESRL

Kd: 0.9 nM
B1: Gαq (activated) (protein)
chain: MTLESIMACCLSEEAKEARRINDEIERQLRRDKRDARRELKLLLLGTGESGKSTFIKQMRIIHGSGYSDEDKRGFTKLVYQNIFTAMQAMIRAMDTLKIPYKYEHNKAHAQLVREVDVEKVSAFENPYVDAIKSLWNDPGIQECYDRRREYQLSDSTKYYLNDLDRVADPSYLPTQQDVLRVRVPTTGIIEYPFDLQSVIFRMVDVGGQRSERRKWIHCFENVTSIMFLVALSEYDQVLVESDNENRMEESKALFRTIITYPWFQNSSVILFLNKKDLLEEKIMYSHLVDYFPEYDGPQRDAQAAREFILKMFVDLNPDSDKIIYSHFTCATDTENIRFVFAAVKDTILQLNLKEYNLV
modifications: activated Gαq, with γ-synuclein

From publication PMC3414502 (2012)
